Reference: patent US11912781B2, “Humanized complement 5A receptor 1 antibodies and methods of use thereof” (VISTERRA, INC., priority 2021, dated 2024)

Experiments:
[1] = test system: U937-C5aR1 cells; experiment: Binding to U937-C5aR1 cells; settings: two antibody preparations
[2] = test system: human neutrophils; experiment: Binding to human neutrophils; settings: two antibody preparations
[3] = molecular target: T1, C5aR1 (Homo sapiens, UniProt P21730); experiment: GeneBLAzer assay, inhibition of Gα signaling; type: cell-based
T1 sequence (P21730 1-350): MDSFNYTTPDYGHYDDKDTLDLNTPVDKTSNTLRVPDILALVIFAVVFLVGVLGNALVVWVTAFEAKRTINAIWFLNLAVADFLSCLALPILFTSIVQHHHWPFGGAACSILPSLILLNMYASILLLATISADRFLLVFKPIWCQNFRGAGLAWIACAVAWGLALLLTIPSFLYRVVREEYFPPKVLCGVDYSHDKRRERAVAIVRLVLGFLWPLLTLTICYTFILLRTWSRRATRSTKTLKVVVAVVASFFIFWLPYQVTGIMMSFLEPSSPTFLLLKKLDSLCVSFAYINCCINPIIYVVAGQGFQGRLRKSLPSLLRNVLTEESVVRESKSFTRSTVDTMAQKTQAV
Protocol: The GeneBLAzer assay kit and C5aR1 cell line were commercially available from Thermo Fisher (Catalog #K1544). The assay was performed as recommend by the manufacturer. Briefly, antibodies or antagonists were incubated for 30 minutes at increasing concentrations at 37° C. C5a was then added to the cells and incubated at 37° C. for an additional 4-5 hours. Beta-lactamase substrate was then added and incubated for 2 hours at room temperature. Fluorescent measurements for each well with an excitation/emission of 409/460 (blue) and 409/530 (green) were measured. An increase in the blue to green ratio was proportional to C5aR1 activation and was used to calculate the percent of activation for the cells in each well. The C5aR1 activation profile was monitored under increasing antagonist concentration. The IC50 was determined by plotting the percentage of signal against concentration of the antagonist.
This experiment was done as detailed in Example 2.

[4] = test system: CD11b; experiment: Inhibition of CD11b expression in neutrophils; type: cell-based, human; settings: range of C5a concentrations
Description: CD11b, an integrin receptor, is mobilized to the surface of neutrophils in response to C5a activation and mediates intravascular crawling prior to neutrophil transmigration. CD11 is involved in numerous adhesion-related associations between cells such as monocytes, macrophages, natural killer (NK) cells, and granulocytes.
The experimental details of this determining CD11 expression are described in Example 5.

[5] = test system: squirrel monkeys; experiment: C5a-induced neutropenia in squirrel monkeys; type: in vivo, squirrel monkey; settings: antibody 10 mg/kg or avacopan 30 mg/kg IV 1 h before 0.1 mg/kg human C5a, 1 min post-C5a
Protocol: Briefly, three groups of squirrel monkeys were evaluated for inhibition of neutropenia. In the first group, 8 squirrel monkeys were injected with PBS (vehicle), intravenously. In the second group 8 squirrel monkeys were injected with exemplary antibodies at a dose of 10 mg/kg, intravenously. In the third group, group 8 squirrel monkeys were injected with avacopan at a dose of 30 mg/kg, intravenously. One hour after injection of the PBS, exemplary antibodies or avacopan, 0.1 mg/kg of human C5a was injected into the squirrel monkeys. The blood was collected after 1 min, 5 min 15 min, 2 hr and 6 hr after injection of human C5a. The percent change in neutrophils and average change in neutrophils were calculated in all three groups and are shown in FIG. 14B, as scatter plot.

[6] = molecular target: T1, C5aR1; experiment: β-arrestin2 recruitment, two-subunit luciferase reporter; type: cell-based; set-up: expressed in transfected cells
Description: The β-arrestin assay utilized a proprietary two-subunit luciferase reporter system: one subunit is fused to C5aR1 and one subunit is fused to β-arrestin2. When in close proximity, the two subunits formed an enzyme that generates a luminescent signal, used as a proxy for C5aR1-mediated recruitment of β-arrestin2.
The experimental details of this determining β-arrestin recruitment are described in Example 6. […] Table 14 summarizes the […] of inhibition of β-arrestin recruitment.

[7] = test system: tMCAO mice; experiment: tMCAO stroke mouse model, infarct volume; type: in vivo; settings: antibodies 20 mg/kg, PMX53 1 mg/kg
Protocol: 1 mg/kg PMX53 was used as a control. The brain was resected, cut into slices and stained with TTC. The stained cross sections were analyzed by imaging.

[8] = Pharmacokinetics in Tg32 mice; type: in vivo, mouse; settings: 5 mg/kg IV
Protocol: (§1) 5 mg/kg of exemplary monospecific and biparatopic antibodies were injected intravenously into Tg32 mice. The amount of the antibody in the serum was evaluated over a period of 500 hours. […] FIG. 16B-16D show the stability of the anti-C5aR1 antibodies in the serum of 5 different mice for 500 hours. […] The tetravalent antibodies have slightly lower persistence in serum as compared to the monospecific antibody. Motavizumab was used as a control.
Tg32 mice are a transgenic model in which human FcRn replaces native mouse FcRn. FcRn is necessary for the bidirectional transport of Abs across cellular barriers, influencing PK. Tg32 mice with human FcRn have been extensively studied and thought to correlate with PK in humans. The goal of this experiment was to assess FcRn-mediated recycling of IgG-scFv vs IgG formats and assess any impact of introducing Fc domain modifications on FcRn mediated recycling.
5 mg/kg of exemplary monospecific and biparatopic antibodies were injected intravenously into Tg32 mice. The percentage of antibody in the serum was determined using art-recognized assays. MVZ-IgG4-VFc17, a motavizumab antibody with IgG4 Fc and same Fc modifications as the C5aR1 antibodies, was used as a control. Further PK/PD analyses were carried out using CERTARA.

[9] = Pharmacokinetics in human C5aR1 knock-in mice; type: in vivo, mouse; settings: hC5aR1 mice, 20 mg/kg
Protocol: as §1
Target-Mediated Drug Disposition (TMDD) is evident for both exemplary C5aR1 antibodies with modified Fc domains. TMDD is the phenomenon in which a drug binds with high affinity to its pharmacological target site (such as a receptor) to such an extent that this affects its pharmacokinetic (PK) characteristics. The target binding and subsequent elimination of the drug-target complexes could affect both drug distribution and elimination, and result in nonlinearity of PK in a dose-dependent manner.
The target binding and subsequent elimination of the drug-target complexes could affect both drug distribution and elimination, and result in nonlinearity of PK in a dose-dependent manner. FIG. 30A-30F show antibody persistence was dose-dependent. […] FIG. 30F is in silico graphical representation of isotype control antibody over a period of 500 hours at a concentration of 20 mg/Kg. Non-naïve mice were administered multiple dosing of the mAbs once weekly over 4 total weeks.

[10] = molecular target: T1, C5aR1; experiment: Binding kinetics and internalization with or without sodium azide; settings: with or without 20 mM sodium azide
Protocol: The Example seeks to verify that the internalization of the C5aR1 antibodies is specific and not due to non-specific clustering of the membrane immunoglobulin. Sodium azide is a metabolic inhibitor, and inhibits internalization or endocytosis as these are energy dependent processes. Any metabolic dependency on the internalization of exemplary C5aR1 antibodies were probed using 10 nM C5aR1 antibodies in the presence or absence of 20 mM sodium azide.

motavizumab [reference compound]
EC50 of U937-C5aR1 binding [1]: No Binding | EC50 of human neutrophil binding [2]: No Binding

Cc1ccc(NC(=O)[C@H]2CCCN(C(=O)c3c(C)cccc3F)[C@H]2c2ccc(NC3CCCC3)cc2)cc1C(F)(F)F [Avacopan]
IC50 ([3]; read-out: IC50 (nM) 10 nM C5a, Gα signaling, 10 nM C5a, Table 13): 2.2 nM | IC50 ([3]; read-out: IC50 (nM) 100 nM C5a, Gα signaling, extrapolated data, 100 nM C5a, Table 13, extrapolated): 0.7 nM | inhibition of CD11b expression [4]: only partially potent | average reduction in neutrophil counts from baseline [5]: 59% | IC50 ([6]; 10 nM C5a, Table 9, read-out: IC50 for β-arrestin signaling): 9.95 nM | IC50 ([6]; 100 nM C5a, Table 9, read-out: IC50 for β-arrestin signaling): 3.25 nM | potency in β-arrestin2 recruitment as C5a increases ([6]; C5a concentrations increase to 10 nM): lost potency | IC50 ([6]; read-out: IC50 (nM) at 100 nM C5a, beta-arrestin inhibition, 100 nM C5a, Table 14): 34 nM

PMX53 [reference compound]
infarct volume compared to the vehicle group [7]: only slightly reduced infarct volume

B1: Isotype CTL: a motavizumab antibody with IgG4 Fc and same Fc modifications as the C5aR1 antibodies, used as a control (antibody, chains of the INN, looked up, V domains shown)
VH: QVTLRESGPALVKPTQTLTLTCTFSGFSLSTAGMSVGWIRQPPGKALEWLADIWWDDKKHYNPSLKDRLTISKDTSKNQVVLKVTNMDPADTATYYCARDMIFNFYFDVWGQGTTVTVSS
VL: DIQMTQSPSTLSASVGDRVTITCSASSRVGYMHWYQQKPGKAPKLLIYDTSKLASGVPSRFSGSGSGTEFTLTISSLQPDDFATYYCFQGSGYPFTFGGGTKVEIK
modifications: IgG4 Fc modifications
notes: a motavizumab antibody with IgG4 Fc and same Fc modifications as the C5aR1 antibodies, used as a control
AUC0-24 ([8]; GeoMean): 1620 µg·h/mL | AUCinf ([8]; GeoMean): 16900 µg·h/mL | AUClast ([8]; GeoMean): 13100 µg·h/mL | CL ([8]; GeoMean): 7.08 mL/day/kg | Cmax ([8]; GeoMean): 131 µg/mL | V ([8]; GeoMean): 0.104 L/kg | t1/2 ([8]; Median): 259 h | tlast ([8]; Median): 504 h | AUC0-24 ([9]; GeoMean): 7130 µg·h/mL | AUCinf ([9]; GeoMean): 66200 µg·h/mL | AUClast ([9]; GeoMean): 55800 µg·h/mL | CL ([9]; GeoMean): 7.25 mL/day/kg | Cmax ([9]; GeoMean): 453 µg/mL | V ([9]; GeoMean): 0.06 L/kg | t1/2 ([9]; Median): 127 h | tlast ([9]; Median): 504 h

B2: c2139-e1711: biparatopic anti-C5aR1 antibody, VH1 SEQ ID NO: 14, VL1 SEQ ID NO: 25, VH2 SEQ ID NO: 16, VL2 SEQ ID NO: 17 (antibody, V domains shown)
VH 1: QVQLVQSGAEVKKPGASVKVSCKASGYTFTNYWMHWVRQAPGQGLEWMGYLNPSSGYTKYAQKFQGRVTMTRDTSTSTVYMELSSLRSEDTAVYYCTRSGGDNYGNPYYFDRWGQGTTVTVSS
VL 1: DVQMTQSPSSLSASVGDRVTITCRASQSIVHSNGNTYLHWYQQKPGKAPKFLIYKVSNRFSGVPSRFSGSGSGTDFTLTISSLQPEDFATYYCAQYTLVPLTFGQGTKLEIK
VH 2: EVQLVESGGGLIQPGGSLRLSCAASGFTFNAYAMSWVRQAPGKCLEWVSSISTGGNTYYADSVKGRFTISRDNSKNTLYLQMNSLRAEDTAVYYCTRGYQRFSGFAYWGQGTLVTVSS
VL 2: EIVLTQSPATLSLSPGERATLSCRSSQSLVHSNGNTYLNWYQQKPGQAPRLLIYKVSNRLSGIPARFSGSGSGTDFTLTISSLEPEDFAVYYCSQSTHVPYTFGCGTKLEIK
internalization [10]: undergoes internalization during association
